Measured values: the supplement of paper PMC11246515
± gives the standard deviation of the averaged measurements.

Experiment: total protein half-life in vivo (active degradation + dilution); higher = more stable protein
[1] = E. coli NCM3722 delta-clpP delta-lon delta-hslV, growth: N-lim chemostat, doubling time 6 h
[2] = wild type E. coli NCM3722, growth: N-lim chemostat, doubling time 12 h
[3] = wild type E. coli NCM3722, growth: C-lim chemostat, doubling time 3 h
[4] = wild type E. coli NCM3722, growth: C-lim chemostat, doubling time 6 h
[5] = wild type E. coli NCM3722, growth: C-lim chemostat, doubling time 12 h
[6] = E. coli NCM3722 delta-clpP, growth: N-lim chemostat, doubling time 6 h
[7] = E. coli NCM3722 delta-hslV, growth: N-lim chemostat, doubling time 6 h
[8] = E. coli NCM3722 delta-lon, growth: N-lim chemostat, doubling time 6 h
[9] = E. coli NCM3722 delta-smpB, growth: N-lim chemostat, doubling time 6 h
[10] = wild type E. coli NCM3722, growth: N-lim chemostat, doubling time 6 h
[11] = wild type E. coli NCM3722, growth: P-lim chemostat, doubling time 6 h
[12] = wild type E. coli NCM3722, growth: P-lim chemostat, doubling time 12 h

| Sequence | total protein half-life in vivo [1] [h] | total protein half-life in vivo [2] [h] | total protein half-life in vivo [3] [h] | total protein half-life in vivo [4] [h] | total protein half-life in vivo [5] [h] | total protein half-life in vivo [6] [h] | total protein half-life in vivo [7] [h] | total protein half-life in vivo [8] [h] | total protein half-life in vivo [9] [h] | total protein half-life in vivo [10] [h] | total protein half-life in vivo [11] [h] | total protein half-life in vivo [12] [h] |
| --- | --- | --- | --- | --- | --- | --- | --- | --- | --- | --- | --- | --- |
| MTFIKGLPLMLLTISLGCNAAVQPDRTRIVFNANDKATSLRIENQSDKLPYLAYSWIENEKGEKSDALLVALPPIQRLEPKATSQVRVVKQASTTQLPGDRETLFFYNMREIPPAPDKSSDHAILQVAIQSRIKLFWRPAALRKKAGEKVELQLQVSQQGNQLTLKNPTAYYLTIAYLGRNEKGVLPGFKTVMVAPFSTVNTNTGSYSGSQFYLGYMDDYGALRMTTLNCSGQCRLQAVEAK | > 8 | 14.3 | – | – | – | – | – | – | – | – | – | – |
| MLRPVETPTREIKKLDGLWAFSLDRENCGIDQRWWESALQESRAIAVPGSFNDQFADADIRNYAGNVWYQREVFIPKGWAGQRIVLRFDAVTHYGKVWVNNQEVMEHQGGYTPFEADVTPYVIAGKSVRITVCVNNELNWQTIPPGMVITDENGKKKQSYFHDFFNYAGIHRSVMLYTTPNTWVDDITVVTHVAQDCNHASVDWQVVANGDVSVELRDADQQVVATGQGTSGTLQVVNPHLWQPGEGYLYELCVTAKSQTECDIYPLRVGIRSVAVKGEQFLINHKPFYFTGFGRHEDADLRGKGFDNVLMVHDHALMDWIGANSYRTSHYPYAEEMLDWADEHGIVVIDETAAVGFNLSLGIGFEAGNKPKELYSEEAVNGETQQAHLQAIKELIARDKNHPSVVMWSIANEPDTRPQGAREYFAPLAEATRKLDPTRPITCVNVMFCDAHTDTISDLFDVLCLNRYYGWYVQSGDLETAEKVLEKELLAWQEKLHQPIIITEYGVDTLAGLHSMYTDMWSEEYQCAWLDMYHRVFDRVSAVVGEQVWNFADFATSQGILRVGGNKKGIFTRDRKPKSAAFLLQKRWTGMNFGEKPQQGGKQ | – | – | 2.85 ± 0.27 | 5.46 ± 0.52 | 8.91 ± 1.3 | – | – | – | – | – | – | – |
| MDHLPIFCQLRDRDCLIVGGGDVAERKARLLLDAGARLTVNALAFIPQFTAWADAGMLTLVEGPFDESLLDTCWLAIAATDDDALNQRVSEAAEARRIFCNVVDAPKAASFIMPSIIDRSPLMVAVSSGGTSPVLARLLREKLESLLPLHLGQVAKYAGQLRGRVKQQFATMGERRRFWEKLFVNDRLAQSLANNDQKAITETTEQLINEPLDHRGEVVLVGAGPGDAGLLTLKGLQQIQQADVVVYDRLVSDDIMNLVRRDADRVFVGKRAGYHCVPQEEINQILLREAQKGKRVVRLKGGDPFIFGRGGEELETLCNAGIPFSVVPGITAASGCSAYSGIPLTHRDYAQSVRLITGHLKTGGELDWENLAAEKQTLVFYMGLNQAATIQQKLIEHGMPGEMPVAIVENGTAVTQRVIDGTLTQLGELAQQMNSPSLIIIGRVVGLRDKLNWFSNH [P0AEA8] | 5.19 ± 0.22 | 7.57 ± 0.15 | 3.42 ± 0.48 | 5.47 ± 0.28 | 10.12 ± 0.019 | 4.33 ± 0.24 | 4.17 ± 0.56 | 5.23 ± 0.94 | 4.7 ± 0.87 | 4.39 ± 0.22 | 6.43 ± 1.1 | 13.6 ± 2.6 |
| MIEFVYPHTQLVAGVDEVGRGPLVGAVVTAAVILDPARPIAGLNDSKKLSEKRRLALYEEIKEKALSWSLGRAEPHEIDELNILHATMLAMQRAVAGLHIAPEYVLIDGNRCPKLPMPAMAVVKGDSRVPEISAASILAKVTRDAEMAALDIVFPQYGFAQHKGYPTAFHLEKLAEHGATEHHRRSFGPVKRALGLAS | – | 1.91 | 1.7 ± 0.042 | 2.67 ± 0.43 | 3.19 | 1.93 | 1.11 | 2.38 ± 0.2 | 1.39 ± 0.024 | 1.19 | 1.43 | 2.12 ± 0.71 |
| MKVLVIGNGGREHALAWKAAQSPLVETVFVAPGNAGTALEPALQNVAIGVTDIPALLDFAQNEKIDLTIVGPEAPLVKGVVDTFRAAGLKIFGPTAGAAQLEGSKAFTKDFLARHKIPTAEYQNFTEVEPALAYLREKGAPIVIKADGLAAGKGVIVAMTLEEAEAAVHDMLAGNAFGDAGHRIVIEEFLDGEEASFIVMVDGEHVLPMATSQDHKRVGDKDTGPNTGGMGAYSPAPVVTDDVHQRTMERIIWPTVKGMAAEGNTYTGFLYAGLMIDKQGNPKVIEFNCRFGDPETQPIMLRMKSDLVELCLAACESKLDEKTSEWDERASLGVVMAAGGYPGDYRTGDVIHGLPLEEVAGGKVFHAGTKLADDEQVVTNGGRVLCVTALGHTVAEAQKRAYALMTDIHWDDCFCRKDIGWRAIEREQN | 5.13 ± 0.32 | 7.03 ± 0.35 | 3.38 ± 0.24 | 6.37 ± 0.4 | 10.5 ± 0.14 | 4.89 ± 0.38 | 4.3 ± 0.28 | 4.91 ± 0.24 | 4.44 ± 0.17 | 4.62 ± 0.25 | 6.097 ± 0.048 | 12.7 ± 0.7 |
| MNLWQQNYDPAGNIWLSSLIASLPILFFFFALIKLKLKGYVAASWTVAIALAVALLFYKMPVANALASVVYGFFYGLWPIAWIIIAAVFVYKISVKTGQFDIIRSSILSITPDQRLQMLIVGFCFGAFLEGAAGFGAPVAITAALLVGLGFKPLYAAGLCLIVNTAPVAFGAMGIPILVAGQVTGIDSFEIGQMVGRQLPFMTIIVLFWIMAIMDGWRGIKETWPAVVVAGGSFAIAQYLSSNFIGPELPDIISSLVSLLCLTLFLKRWQPVRVFRFGDLGASQVDMTLAHTGYTAGQVLRAWTPFLFLTATVTLWSIPPFKALFASGGALYEWVINIPVPYLDKLVARMPPVVSEATAYAAVFKFDWFSATGTAILFAALLSIVWLKMKPSDAISTFGSTLKELALPIYSIGMVLAFAFISNYSGLSSTLALALAHTGHAFTFFSPFLGWLGVFLTGSDTSSNALFAALQATAAQQIGVSDLLLVAANTTGGVTGKMISPQSIAIACAAVGLVGKESDLFRFTVKHSLIFTCIVGVITTLQAYVLTWMIP | – | – | 1.79 | 1.93 | 2.6 ± 0.12 | – | – | – | – | – | – | – |
| MDWLLDVFATWLYGLKVIAITLAVIMFISGLDDFFIDVVYWVRRIKRKLSVYRRYPRMSYRELYKPDEKPLAIMVPAWNETGVIGNMAELAATTLDYENYHIFVGTYPNDPDTQRDVDEVCARFPNVHKVVCARPGPTSKADCLNNVLDAITQFERSANFAFAGFILHDAEDVISPMELRLFNYLVERKDLIQIPVYPFEREWTHFTSMTYIDEFSELHGKDVPVREALAGQVPSAGVGTCFSRRAVTALLADGDGIAFDVQSLTEDYDIGFRLKEKGMTEIFVRFPVVDEAKEREQRKFLQHARTSNMICVREYFPDTFSTAVRQKSRWIIGIVFQGFKTHKWTSSLTLNYFLWRDRKGAISNFVSFLAMLVMIQLLLLLAYESLWPDAWHFLSIFSGSAWLMTLLWLNFGLMVNRIVQRVIFVTGYYGLTQGLLSVLRLFWGNLINFMANWRALKQVLQHGDPRRVAWDKTTHDFPSVTGDTRSLRPLGQILLENQVITEEQLDTALRNRVEGLRLGGSMLMQGLISAEQLAQALAEQNGVAWESIDAWQIPSSLIAEMPASVALHYAVLPLRLENDELIVGSEDGIDPVSLAALTRKVGRKVRYVIVLRGQIVTGLRHWYARRRGHDPRAMLYNAVQHQWLTEQQAGEIWRQYVPHQFLFAEILTTLGHINRSAINVLLLRHERSSLPLGKFLVTEGVISQETLDRVLTIQRELQVSMQSLLLKAGLNTEQVAQLESENEGE [P0AFA5] | 4.66 ± 1.7 | 9.6 ± 6.5 | – | – | – | – | – | – | – | – | – | – |
| MKVLTVFGTRPEAIKMAPLVHALAKDPFFEAKVCVTAQHREMLDQVLKLFSIVPDYDLNIMQPGQGLTEITCRILEGLKPILAEFKPDVVLVHGDTTTTLATSLAAFYQRIPVGHVEAGLRTGDLYSPWPEEANRTLTGHLAMYHFSPTETSRQNLLRENVADSRIFITGNTVIDALLWVRDQVMSSDKLRSELAANYPFIDPDKKMILVTGHRRESFGRGFEEICHALADIATTHQDIQIVYPVHLNPNVREPVNRILGHVKNVILIDPQEYLPFVWLMNHAWLILTDSGGIQEEAPSLGKPVLVMRDTTERPEAVTAGTVRLVGTDKQRIVEEVTRLLKDENEYQAMSRAHNPYGDGQACSRILEALKNNRISL | 4.18 ± 0.042 | 8.18 ± 0.94 | 3.23 ± 0.27 | 5.8 ± 0.64 | 10.5 ± 2.5 | 4.52 ± 0.26 | 4.56 ± 0.14 | 4.96 ± 0.82 | 3.55 ± 0.33 | 4.16 ± 0.4 | 6.17 ± 0.78 | 10.1 ± 1.9 |
| MIKLSNITKVFHQGTRTIQALNNVSLHVPAGQIYGVIGASGAGKSTLIRCVNLLERPTEGSVLVDGQELTTLSESELTKARRQIGMIFQHFNLLSSRTVFGNVALPLELDNTPKDEVKRRVTELLSLVGLGDKHDSYPSNLSGGQKQRVAIARALASNPKVLLCDEATSALDPATTRSILELLKDINRRLGLTILLITHEMDVVKRICDCVAVISNGELIEQDTVSEVFSHPKTPLAQKFIQSTLHLDIPEDYQERLQAEPFTDCVPMLRLEFTGQSVDAPLLSETARRFNVNNNIISAQMDYAGGVKFGIMLTEMHGTQQDTQAAIAWLQEHHVKVEVLGYV | 6.5123 ± 0.0016 | 12.67 ± 0.12 | – | 5.76 ± 0.38 | 9.681 ± 0.078 | 6.41 ± 0.39 | 6.04 ± 0.08 | 6.66 ± 0.25 | 5.61 ± 0.26 | 5.85 ± 0.51 | 6.3 ± 0.86 | 12.1 ± 0.42 |
| MHHATPLITTIVGGLVLAFILGMLANKLRISPLVGYLLAGVLAGPFTPGFVADTKLAPELAELGVILLMFGVGLHFSLKDLMAVKAIAIPGAIAQIAVATLLGMALSAVLGWSLMTGIVFGLCLSTASTVVLLRALEERQLIDSQRGQIAIGWLIVEDLVMVLTLVLLPAVAGMMEQGDVGFATLAVDMGITIGKVIAFIAIMMLVGRRLVPWIMARSAATGSRELFTLSVLALALGVAFGAVELFDVSFALGAFFAGMVLNESELSHRAAHDTLPLRDAFAVLFFVSVGMLFDPLILIQQPLAVLATLAIILFGKSLAAFFLVRLFGHSQRTALTIAASLAQIGEFAFILAGLGMALNLLPQAGQNLVLAGAILSIMLNPVLFALLEKYLAKTETLEEQTLEEAIEEEKQIPVDICNHALLVGYGRVGSLLGEKLLASDIPLVVIETSRTRVDELRERGVRAVLGNAANEEIMQLAHLECAKWLILTIPNGYEAGEIVASARAKNPDIEIIARAHYDDEVAYITERGANQVVMGEREIARTMLELLETPPAGEVVTG | 7.0037 ± 0.0035 | 12.7 ± 0.69 | > 4 | 5.87 ± 0.64 | – | 6.7 ± 0.41 | 6.3 ± 0.52 | 6.24 ± 1.1 | 6.31 ± 0.61 | 5.84 ± 0.9 | 6.44 ± 0.68 | 12.6 ± 0.86 |
| MLNKLSLLLKDAGISLTDHQKNQLIAYVNMLHKWNKAYNLTSVRDPNEMLVRHILDSIVVAPYLQGERFIDVGTGPGLPGIPLSIVRPEAHFTLLDSLGKRVRFLRQVQHELKLENIEPVQSRVEEFPSEPPFDGVISRAFASLNDMVSWCHHLPGEQGRFYALKGQMPEDEIALLPEEYQVESVVKLQVPALDGERHLVVIKANKI [P0A6U5] | 5.85 ± 1.7 | 8.45 ± 0.31 | 3.51 ± 0.68 | – | 10.5 ± 1.6 | 4.636 ± 0.041 | – | 5.33 ± 0.68 | 4.48 ± 0.18 | 5.09 ± 0.33 | 5.87 ± 0.69 | 13.1 ± 2 |
| MPELPEVETSRRGIEPHLVGATILHAVVRNGRLRWPVSEEIYRLSDQPVLSVQRRAKYLLLELPEGWIIIHLGMSGSLRILPEELPPEKHDHVDLVMSNGKVLRYTDPRRFGAWLWTKELEGHNVLTHLGPEPLSDDFNGEYLHQKCAKKKTAIKPWLMDNKLVVGVGNIYASESLFAAGIHPDRLASSLSLAECELLARVIKAVLLRSIEQGGTTLKDFLQSDGKPGYFAQELQVYGRKGEPCRVCGTPIVATKHAQRATFYCRQCQK | 6.1 ± 0.54 | 12.8 ± 1.4 | 2.58 ± 0.11 | – | 12.7 ± 2.8 | 6.39 ± 0.79 | 6.03 | 6.39 ± 1.2 | 5.63 ± 0.36 | 6.31 ± 0.42 | 6.46 ± 0.51 | 14.2 ± 0.28 |
